In patent US9663570B2, “Single domain antibodies directed against KRAS” (SINGH MOLECULAR MEDICINE, LLC, priority 2014, dated 2017):
Values joined by “and” are separate entries in the source; they are usually repeats but may differ in a detail not shown here. Equal values may be shown once.

Legend:
[1] = molecular target: T1, TNF-alpha (Homo sapiens, UniProt P01375); assay: Inhibition of TNF-alpha cytotoxicity against U937 by anti-TNF-alpha sdAbs; format: cell-based; conditions: constant dose of TNF-alpha at EC50
T1 construct: host or cells: added exogenously to U937 cells
T1 sequence (P01375 77-233 limits assumed): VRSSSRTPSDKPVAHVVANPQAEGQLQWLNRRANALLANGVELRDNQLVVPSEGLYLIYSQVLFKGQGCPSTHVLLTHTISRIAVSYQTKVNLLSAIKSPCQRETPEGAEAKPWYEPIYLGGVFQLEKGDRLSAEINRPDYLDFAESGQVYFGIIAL

[2] = test system: MDA-MB-231 cells; assay: MTT proliferation assay, MDA-MB-231; format: cell-based, human; conditions: for Mean Absorbance (570 nM) ± S.E., Overall Mean: mean of 4 experiments; for Mean Growth Inhibition: individual experiments 1-4;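 on all read-outs here: cultures held at 37 °C in humidified 5% CO2, treated groups compared against vehicle-treated controls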

Molecule	inhibition of killing of U937 by TNF-alpha [1]	Mean Absorbance (570 nM) ± S.E. ([2]; Day 3, 10.0 μg/ml, individual experiments 1-4 (Table 6))	Mean Absorbance (570 nM) ± S.E., Overall Mean ([2]; Day 3, 10.0 μg/ml)	Mean Absorbance (570 nM) ± S.E. ([2]; Day 3, 100 μg/ml, individual experiments 1-4 (Table 6))	Mean Absorbance (570 nM) ± S.E., Overall Mean ([2]; Day 3, 100 μg/ml)	Mean Absorbance (570 nM) ± S.E. ([2]; Day 5, 10.0 μg/ml, individual experiments 1-4 (Table 7))	Mean Absorbance (570 nM) ± S.E., Overall Mean ([2]; Day 5, 10.0 μg/ml)	Mean Absorbance (570 nM) ± S.E. ([2]; Day 5, 100 μg/ml, individual experiments 1-4 (Table 7))	Mean Absorbance (570 nM) ± S.E., Overall Mean ([2]; Day 5, 100 μg/ml)	Mean Growth Inhibition ([2]; post 3 days, 10.0 μg/ml)	Mean Growth Inhibition ([2]; post 3 days, 100 μg/ml)	Mean Growth Inhibition ([2]; post 5 days, 10.0 μg/ml)	Mean Growth Inhibition ([2]; post 5 days, 100 μg/ml)
anti-TNF-alpha VHH62: third anti-TNF-alpha sdAb (SEQ ID NO. 47) (protein, Camelid) VHH: QVQLVESGGGPVQAGETLRLSCTASGFTFAEADMGWYRQAPGHECELVSTITTEGITSEASSYYADSVRGRFTISRDNAKNMVYLQMNSLKPEDTAVYYCAPDPYAYSTYSDYCSWAQGTQGTLVTVSS	inhibit killing of U937 by TNF-alpha	–	–	–	–	–	–	–	–	–	–	–	–
B.VHH14: second anti-STAT3 sdAb, named VHH14 (SEQ ID NO. 4) (protein, Camelid) VHH: QVQLVESGGGSVQAGGSLRLSCVASTYTGCMGWFRQAPGKEREGVAALSSRGFAGHYTDSVKGRFSISRDYVKNAVYLQMNTVKPEDAAMYYCAAREGWECGETWLDRTAGGHTYWGQGTLVTVSS	–	0.456 ± 0.048 and 0.499 ± 0.018 and 0.502 ± 0.048 and 0.559 ± 0.041	0.504 ± 0.021	0.255 ± 0.005 and 0.357 ± 0.019 and 0.308 ± 0.021 and 0.287 ± 0.021	0.302 ± 0.043	0.640 ± 0.011 and 0.338 ± 0.023 and 0.930 ± 0.044 and 0.842 ± 0.052	0.688 ± 0.131	0.549 ± 0.023 and 0.274 ± 0.032 and 0.578 ± 0.039 and 0.499 ± 0.036	0.475 ± 0.0690	23.1% and 20.0% and 38.5% and 23.3%	57.0% and 42.8% and 62.3% and 60.6%	5.5% and 25.9% and 5.4% and 22.9%	18.9% and 39.9% and 41.2% and 54.3%
anti-TNF-alpha VHH69: second anti-TNF-alpha sdAb (SEQ ID NO. 46) (protein, Camelid) VHH: EVQLVESGGGSVLAGGSLRLSCVASGFTSRYNYMAWFRQAPGKEREGVATIGTASGSADYYGSVKDRFTISQDNAKNTVYLQMNSLKPEDTAMYYCAARTYGTISLTPSDYRYWGQGTLVTVSS	inhibit killing of U937 by TNF-alpha	–	–	–	–	–	–	–	–	–	–	–	–
